The record followed here is US20230192834A1.

Substitutions are numbered along the chain they refer to.

T1: TGFβ2 (R&D Systems)
T1 sequence (P61812 303-414, species assumed, looked up): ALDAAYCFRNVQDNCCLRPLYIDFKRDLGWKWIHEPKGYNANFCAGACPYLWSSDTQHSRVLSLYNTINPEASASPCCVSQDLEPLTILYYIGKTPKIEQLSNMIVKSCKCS

T2: TGFβ3 (R&D Systems)
T2 sequence (P10600 301-412, species assumed, looked up): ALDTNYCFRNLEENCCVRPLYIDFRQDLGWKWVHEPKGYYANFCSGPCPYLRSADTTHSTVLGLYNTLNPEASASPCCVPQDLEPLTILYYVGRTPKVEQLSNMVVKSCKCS

B1: Felinized anti-TGFβ1,2,3 antibody VH2.8 - VL6 (antibody, V domains shown)
VH: QVQLVQSGAEVKKPGSSVKVSCKASGYTFSSNVISWVRQTPAQGFEWMGGVIPIVDIANYAQRFKGRLVLTADTSTNTAYMELRSLKSADTAVYYCASTLGLVLDAMDYWGQGTLVTVSS
VL: QSVLTQPPSVSGSLGQRVTISCRASQSLGSSYLAWYQQVPGRAPRLLIYGASSRAPGIPDRFSGSKSGTSGSLTITGLEADDEADYYCQQYADSPITFGGGTHLTVLG
B2: Caninized anti-TGFβ1,2,3 antibody VH4.5 - VL1 (antibody, V domains shown)
VH: EVQLVESGGDLVKPAGSLRLSCVASGYTFSSNVMSWVRQAPGKGLQWVGYVIPIVDIANYADAVKGRFTISRDNAKNTLYLQMNSLRVEDTAVYYCTRTLGLVLDAMDYWGQGTLVTVSS
VL: ETVLTQSPGTLSLSPGERATLSCRASQSLGSSYLAWYQQKPGQAPRLLIYGASSRAPGIPDRFSGSGSGTDFTLTISRLEPEDFAVYYCQQYADSPITFGQGTRLEIKR
B3: Caninized anti-TGFβ1,2,3 antibody VH3.6 - VL2 (antibody, V domains shown)
VH: EVQLVQSAAEVKKPGASVKVSCKTSGYIFISNVISWVRQAPGQGLEWMGGVIPIVDIANYAQRFKGRVTITADESTSTTYMELSSLRSEDTAVYYCASTLGLVLDAMDYWGQGTLVTVSS
VL: B2 VL with I59V, D61A, R78S, R104K
B4: Caninized anti-TGFβ1,2,3 antibody VH3.1 - VL2 (ZTS-122) (antibody, V domains shown)
VH: DVQLVESGGDLVKPGGSLRLTCVASGYTFSSNVMHWVRQAPGKGLQWVAYVIPIVDIAYYADSVKGRFTISIDNSKNTLYLQMNSLKTEDTATYYCARTLGLVLDAMDYWGQGTLVTVSS
VL: B2 VL with I59V, D61A, R78S, R104K
B5: Caninized anti-TGFβ1,2,3 antibody VH4.5 - VL2 (ZTS-207) (antibody, V domains shown)
VH: B2 VH
VL: B2 VL with I59V, D61A, R78S, R104K
B6: Caninized anti-TGFβ1,2,3 antibody VH3.5 - VL2 (antibody, V domains shown)
VH: B3 VH with R38Q, Q43A, I70L, E74T, S77N, T79V, S85N, S88T
VL: B2 VL with I59V, D61A, R78S, R104K
B7: Felinized anti-TGFβ1,2,3 antibody VH2.2 - VL3 (antibody, V domains shown)
VH: QVLLVQSGADVRKPGASVKIFCKASGYTFSSNVMHWVRQTPAQGFEWMGSVIPIVDIATYARRFQGRLVLTADTSTNTAYMELRSLKSADTAVYYCARTLGLVLDAMDYWGQGSLVTVSS
VL: EIQMTQSPSSLSASPGDRVTITCRASQSLGSSYLAWYQQKPGKVPKLLIYGASSRAPGVPSRFSGSGSGTDFTLTISSLEPEDAATYYCQQYADSPITFGQGTKLEIKR
B8: Caninized anti-TGFβ1,2,3 antibody VH4.11 - VL3 (antibody, V domains shown)
VH: QVQLVQSGAEVKKPGSSVKVSCKASGYTFSSNVISWVRQAPGKGLQWVGGVIPIVDIANYAQRFKGRVTLTADTSTNTVYMELSNLRTEDTAVYYCARTLGLVLDAMDYWGQGTLVTVSS
VL: EIVMTQSPASLSLSQEEKVTITCRASQSLGSSYLAWYQQKPGQAPKLLIYGASSRAPGVPSRFSGSGSGTDFSFTISSLEPEDVAVYYCQQYADSPITFGQGTKLEIKR
B9: Caninized anti-TGFβ1,2,3 antibody VH4.11 - VL2 (antibody, V domains shown)
VH: B8 VH
VL: B2 VL with I59V, D61A, R78S, R104K
B10: Caninized anti-TGFβ1,2,3 antibody VH4.7 - VL2 (antibody, V domains shown)
VH: B8 VH with L70I, T74E, N77S, V79T, N85S, T88S, R98S
VL: B2 VL with I59V, D61A, R78S, R104K
B11: Caninized anti-TGFβ1,2,3 antibody VH5.10 - VL3 (antibody, V domains shown)
VH: EVQLVESGGDLVKPGGSLRLSCVASGFTFSSNVISWVRQAPGQGLEWMGGVIPIVDIANYAQRFKGRVTLTADTSTNTVYMELSNLRTEDTAVYYCARTLGLVLDAMDYWGQGTLVTVSS
VL: B8 VL

The first assay deals with TGFβ1 (R&D Systems). As to the kind of experiment: SPR (Biacore T200), TGFβ amine-coupled to chip, 1:1 fit. On the technique in general: In SPR one partner is held on a chip, and binding of the other changes the refractive index at the surface.
Sequence of TGFβ1 (R&D Systems) (P01137 279-390): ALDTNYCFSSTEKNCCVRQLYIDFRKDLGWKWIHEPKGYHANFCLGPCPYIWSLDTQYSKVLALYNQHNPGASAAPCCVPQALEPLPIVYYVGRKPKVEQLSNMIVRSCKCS
For B1, the Kd (usually the concentration at which binding is half-saturated) came out at 2.95 nM.
Still for that read-out and setting: then B2, with 2.57 nM; and B3, with 4.39 nM.
The same measure, in the same setting: next, B4: 5.6 nM.
Same read-out and setting: then B5, with 2.3 nM; and B6, with 4.37 nM.
Turning to B7, the Kd is 3.31 nM.
Consider B8, for which the Kd was found to be 7.14 nM.
In the case of B9, the Kd amounted to 4.98 nM.
Molecule B10 showed a Kd of 2.61 nM.
Same read-out and setting: next, B11: 5.23 nM.

The target in another assay is T1, TGFβ2 (R&D Systems). The description is as above.
Regarding B1, the Kd is 1.72 nM.
Same read-out and setting: then B2, with 1.56 nM; and B3, with 3.42 nM; and B4, with 3.37 nM.
Same read-out and setting: next, B5: 1.4 nM; B6: 3.56 nM; B7: 2.39 nM.
B8 displayed a dissociation constant (Kd) of 5.15 nM. Compared with the last molecule, the Kd is about 2.2-fold higher.
Same read-out and setting: next, B9: 3.77 nM; B10: 1.99 nM; B11: 3.57 nM.

The next assay addresses T2, TGFβ3 (R&D Systems). Described as above.
In the case of B1, the Kd was 2.41 nM.
On the same count and under the same terms, then B2, with 0.475 nM.
B3 registered a Kd of 1.49 nM.
Still for that read-out and setting: then B4, with 1.12 nM; and B5, with 0.43 nM.
The same measure, in the same setting: next, B6: 1.91 nM; B7: 3.49 nM.
The same measure, in the same setting: next, B8: 2.5 nM.
On to B9, for which the dissociation constant Kd was found to be 2.1 nM.
On the same count and under the same terms, next, B10: 1.2 nM; B11: 1.5 nM.

Another assay has as its target TGFβ1 (R&D Systems). As to the kind of experiment: cell-based or functional assay.
For B1, the TGFb1 IC50 (SMAD3 phosphorylation in CMVICs, AlphaLISA) is 0.969 µg/mL.
In the case of B2, the TGFb1 IC50 (SMAD3 phosphorylation in CMVICs, AlphaLISA) was 0.122 µg/mL.
Still for that read-out and setting: then B3, with 0.057 µg/mL; and B4, with 0.061 µg/mL; and B5, with 0.06 µg/mL.
Still for that read-out and setting: then B6, with 0.083 µg/mL; and B7, with 0.24 µg/mL; and B8, with 1.01 µg/mL.
The molecule B9 registered a TGFb1 IC50 (SMAD3 phosphorylation in CMVICs, AlphaLISA) of 0.164 µg/mL.
The same measure, in the same setting: next, B10: 0.071 µg/mL; B11: 0.232 µg/mL.

The target in the next assay is T1, TGFβ2 (R&D Systems). As to the kind of experiment: cell-based or functional assay.
B1 displayed a TGFb2 IC50 (SMAD3 phosphorylation in CMVICs, AlphaLISA) of 0.547 µg/mL.
Same read-out and setting: next, B2: 0.609 µg/mL; B3: 0.459 µg/mL.
On the same count and under the same terms, next, B4: 0.508 µg/mL.
With B5, the TGFb2 IC50 (SMAD3 phosphorylation in CMVICs, AlphaLISA) turned out to be 0.285 µg/mL.
Still for that read-out and setting: next, B6: 9.41 µg/mL; B7: 1.2 µg/mL.
Same read-out and setting: next, B8: 16.7 µg/mL; B9: 8.48 µg/mL.
B10 displayed a TGFb2 IC50 (SMAD3 phosphorylation in CMVICs, AlphaLISA) of 0.81 µg/mL.
Still for that read-out and setting: next, B11: 5.47 µg/mL.

The target in a further assay is T2, TGFβ3 (R&D Systems). In words: cell-based or functional assay.
As for B2, the TGFb3 IC50 (SMAD3 phosphorylation in CMVICs, AlphaLISA) amounted to 0.062 µg/mL.
The same measure, in the same setting: next, B3: 0.203 µg/mL; B4: 0.092 µg/mL.
The same measure, in the same setting: then B5, with 0.02 µg/mL; and B6, with 0.981 µg/mL.
On to B8, for which the TGFb3 IC50 (SMAD3 phosphorylation in CMVICs, AlphaLISA) is 0.575 µg/mL.
Still for that read-out and setting: then B9, with 0.375 µg/mL.
The same measure, in the same setting: next, B11: 0.113 µg/mL.
